Experiment [1] concerns the target T1, Anti-PSMA Fab (SEQ ID NOs: 19, 20).
T1 construct: In the phage ELISA the Fab was biotinylated and captured on neutravidin coated plates; also called 006 PSMA Fab
As to the kind of experiment: phage binding ELISA on captured PSMA Fab, wells pre-incubated with PSMA antigen as competitor. For orientation: ELISA stands for enzyme-linked immunosorbent assay.
Method: (§1) Clonal phage were harvested as crude supernatants and screened via standard ELISAs. […] Prior to the addition of clonal phage. wells were incubated with blocking buffer and PSMA antigen or blocking buffer alone. Without washing or aspirating, clonal phage supernatants were then added to the wells and incubated for a short time. Wells were then washed followed by detection of bound phage using a horse radish conjugated anti-M13 antibody.

Experiment [2] shares this target. As to the kind of experiment: phage binding ELISA; biotinylated PSMA Fab captured on neutravidin plate, bound phage detected with anti-M13-HRP.
Method: as §1
Experiment [3] concerns the target T2, Anti-PSMA Fab (SEQ ID NOs: 19, 20).
T2 construct: In the phage ELISA the PSMA Fab was biotinylated and captured on neutravidin coated plates; also called 006 PSMA Fab
As to the kind of experiment: phage binding ELISA; PSMA Fab on plate pre-incubated with PSMA antigen as competitor, anti-M13 HRP detection.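 Further: crude clonal phage supernatants added without washing to wells preincubated with PSMA in blocking buffer, compared with wells receiving blocking buffer only, then bound phage detected.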
Method: as §1

The target is the same in experiment [4]. As to the kind of experiment: phage binding ELISA; biotinylated PSMA Fab on neutravidin plate, clonal phage supernatant, anti-M13 HRP detection.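 Further: wells were preincubated with blocking buffer either containing PSMA antigen or without it before crude phage supernatant was added, briefly incubated, then washed prior to detection.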
Method: as §1

Where no end group is shown, it is not given here.

B1: Phage-2087 (peptide)
peptide: FEKWCIPSWMCSGP
modifications: cysteine pairing not given here; also: fused to phage pIII, pIII sequence and linker not given here
notes: Clonal phage of the Peptide-180 library
As for B1, the “Anti-PSMA Fab signal in the presence of PSMA” value (shortened to “Anti-PSMA Fab signal”) in experiment [1] was 0.097. Also, in experiment [2], the “Anti-PSMA Fab (SEQ ID NOs: 19, 20) signal” value was 1.75.

B2: Phage-2083 (peptide-180 library clone, SEQ ID NO: 2399) (peptide)
peptide: WSNWCTPRWVCKTI
notes: Tested as clonal phage supernatant; not shown: pIII filament protein of the bacteriophage to which the peptide is fused for display
For B2, in experiment [3], the “Anti-PSMA Fab signal” value worked out at 0.0752. Further, the “Anti-PSMA Fab (SEQ ID NOs: 19, 20) signal” value in experiment [4] is 1.75.
For VETWCTPRWMCEGF (Clonal phage of the Peptide-180 library) [Phage-2093], the “Anti-PSMA Fab signal” value in experiment [1] amounted to 0.0881. Further, the “Anti-PSMA Fab (SEQ ID NOs: 19, 20) signal” value in experiment [2] worked out at 1.74.
As for QGIMCIPEWMCSAI (Clonal phage of the Peptide-180 library) [Phage-2097], the “Anti-PSMA Fab signal” value in experiment [1] is 0.0664. For the same molecule, in experiment [2], the “Anti-PSMA Fab (SEQ ID NOs: 19, 20) signal” value worked out at 1.73.

B3: Phage-2085 (peptide-180 library clone, SEQ ID NO: 2401) (peptide)
peptide: ESKWCTPPWMCMTD
notes: as for B2
For the molecule B3, the “Anti-PSMA Fab signal” value in experiment [3] is 0.0945. The “Anti-PSMA Fab (SEQ ID NOs: 19, 20) signal” value in experiment [4] came to 1.75.
Regarding VVHWCIPSWMCTEN (Clonal phage of the Peptide-180 library) [Phage-2094], the “Anti-PSMA Fab signal” value in experiment [1] amounted to 0.0941. Moreover, in experiment [2], the “Anti-PSMA Fab (SEQ ID NOs: 19, 20) signal” value amounted to 1.74.
On the same counts, the results for WGKLCIPEWMCTTQ (Clonal phage of the Peptide-180 library) [Phage-2095] are 0.0687 and 1.74.

B4: Phage-2084 (peptide-180 library clone, SEQ ID NO: 2400) (peptide)
peptide: SEHWCVPSWMCYGF
notes: as for B2
On to B4, for which the “Anti-PSMA Fab signal” value in experiment [3] is 0.0957. In addition, the “Anti-PSMA Fab (SEQ ID NOs: 19, 20) signal” value in experiment [4] came to 1.75.
Take FEKWCIPAWMCAAV (Clonal phage of the Peptide-180 library) [Phage-2092]: the “Anti-PSMA Fab signal” value in experiment [1] amounted to 0.112. Further, in experiment [2], the “Anti-PSMA Fab (SEQ ID NOs: 19, 20) signal” value was determined as 1.74.
For IPKLCKPSWMCLFY (Clonal phage of the Peptide-180 library) [Phage-2098], in experiment [1], the “Anti-PSMA Fab signal” value was 0.185. In addition, the “Anti-PSMA Fab (SEQ ID NOs: 19, 20) signal” value in experiment [2] came out at 1.73.

B5: Phage-2099 (peptide)
peptide: LGNWCIPEWMCYGM
modifications: cysteine pairing not given here; also: fused to phage pIII (clonal phage display)
notes: as for B1
B5: the “Anti-PSMA Fab signal” value in experiment [1] was determined as 0.078. In addition, the “Anti-PSMA Fab (SEQ ID NOs: 19, 20) signal” value in experiment [2] stood at 1.73.

B6: Phage-2088 (peptide)
peptide: VEKWCIPQWMCAEM
modifications: cysteine pairing not given here; also: fused to phage pIII, pIII sequence and linker not given here
notes: as for B1
Take B6: in experiment [1], the “Anti-PSMA Fab signal” value stood at 0.0696. For the same molecule, the “Anti-PSMA Fab (SEQ ID NOs: 19, 20) signal” value in experiment [2] was 1.74.

B7: Phage-2079 (peptide-180 library clone, SEQ ID NO: 2395) (peptide)
peptide: DWRLCIPEWMCERL
notes: as for B2
In the case of B7, the “Anti-PSMA Fab signal” value in experiment [3] was determined as 0.0875. Moreover, the “Anti-PSMA Fab (SEQ ID NOs: 19, 20) signal” value in experiment [4] amounted to 1.75.

B8: Phage-2082 (peptide-180 library clone, SEQ ID NO: 2398) (peptide)
peptide: PEKLCIPDWMCHWD
notes: as for B2
On to B8, for which the “Anti-PSMA Fab signal” value in experiment [3] worked out at 0.0951. Besides, in experiment [4], the “Anti-PSMA Fab (SEQ ID NOs: 19, 20) signal” value was 1.75.

B9: Phage-2091 (peptide)
peptide: ETRWCVPEWMCYGI
modifications: cysteine pairing not given here; also: fused to phage pIII, pIII sequence and linker not given here
notes: as for B1
In the case of B9, in experiment [1], the “Anti-PSMA Fab signal” value was 0.0943. The “Anti-PSMA Fab (SEQ ID NOs: 19, 20) signal” value in experiment [2] was 1.74.

B10: Phage-2080 (peptide-180 library clone, SEQ ID NO: 2396) (peptide)
peptide: WDNWCTPLWMCQGF
notes: as for B2
Turning to B10, the “Anti-PSMA Fab signal” value in experiment [3] was found to be 0.0794. Also, the “Anti-PSMA Fab (SEQ ID NOs: 19, 20) signal” value in experiment [4] was found to be 1.75.
With PDHWCIPSWMCMSQ (Clonal phage of the Peptide-180 library) [Phage-2096], the “Anti-PSMA Fab signal” value in experiment [1] came out at 0.0974. Moreover, the “Anti-PSMA Fab (SEQ ID NOs: 19, 20) signal” value in experiment [2] was 1.74.

B11: Phage-2077 (peptide-180 library clone, SEQ ID NO: 2393) (peptide)
peptide: AEKLCIPPWMCMLS
notes: as for B2
B11: the “Anti-PSMA Fab signal” value in experiment [3] is 0.101. In addition, in experiment [4], the “Anti-PSMA Fab (SEQ ID NOs: 19, 20) signal” value amounted to 1.76.

B12: Phage-2089 (peptide)
peptide: VEKWCIPTWMCQAM
modifications: cysteine pairing not given here; also: fused to phage pIII, pIII sequence and linker not given here
notes: as for B1
As for B12, the “Anti-PSMA Fab signal” value in experiment [1] turned out to be 0.0844. Moreover, in experiment [2], the “Anti-PSMA Fab (SEQ ID NOs: 19, 20) signal” value was determined as 1.74.

B13: Phage-2086 (peptide-180 library clone, SEQ ID NO: 2402) (peptide)
peptide: VHQMCQPWWMCWET
notes: as for B2
For the molecule B13, the “Anti-PSMA Fab signal” value in experiment [3] amounted to 0.0749. The “Anti-PSMA Fab (SEQ ID NOs: 19, 20) signal” value in experiment [4] amounted to 1.75.

B14: Phage-2078 (peptide-180 library clone, SEQ ID NO: 2394) (peptide)
peptide: IEKWCIPEWMCEYT
notes: as for B2
As to B14, the “Anti-PSMA Fab signal” value in experiment [3] worked out at 0.0826. In addition, the “Anti-PSMA Fab (SEQ ID NOs: 19, 20) signal” value in experiment [4] worked out at 1.75.

B15: Phage-2075 (peptide-180 library clone, SEQ ID NO: 2391) (peptide)
peptide: ADKWCTPTWMCQWL
notes: as for B2
For B15, in experiment [3], the “Anti-PSMA Fab signal” value turned out to be 0.0745. Besides, the “Anti-PSMA Fab (SEQ ID NOs: 19, 20) signal” value in experiment [4] came to 1.76.

B16: Phage-2081 (peptide-180 library clone, SEQ ID NO: 2397) (peptide)
peptide: QVNWCIPPWMCAGL
modifications: cysteine pairing not given here; also: fused to phage pIII, pIII sequence and linker not given here
notes: as for B2
Consider B16, for which the “Anti-PSMA Fab signal” value in experiment [3] worked out at 0.0898. Besides, the “Anti-PSMA Fab (SEQ ID NOs: 19, 20) signal” value in experiment [4] was found to be 1.75.
For EAKWCIPAWMCSGV (Clonal phage of the Peptide-180 library) [Phage-2101], the “Anti-PSMA Fab signal” value in experiment [1] was found to be 0.0654. Besides, in experiment [2], the “Anti-PSMA Fab (SEQ ID NOs: 19, 20) signal” value came to 1.73.

B17: Phage-2076 (peptide-180 library clone, SEQ ID NO: 2392) (peptide)
peptide: ADKWCIPEWMCEMN
notes: as for B2
On to B17, for which, in experiment [3], the “Anti-PSMA Fab signal” value came to 0.0844. Moreover, the “Anti-PSMA Fab (SEQ ID NOs: 19, 20) signal” value in experiment [4] was determined as 1.76.
As for INMWCIPAWMCQNT (Clonal phage of the Peptide-180 library) [Phage-2100], in experiment [1], the “Anti-PSMA Fab signal” value was found to be 0.128. Also, the “Anti-PSMA Fab (SEQ ID NOs: 19, 20) signal” value in experiment [2] stood at 1.73.

B18: Phage-2090 (peptide)
peptide: IVKWCVPEWMCEGT
modifications: cysteine pairing not given here; also: fused to phage pIII, pIII sequence and linker not given here
notes: as for B1
With B18, the “Anti-PSMA Fab signal” value in experiment [1] was determined as 0.0687. Moreover, the “Anti-PSMA Fab (SEQ ID NOs: 19, 20) signal” value in experiment [2] was determined as 1.74.

The values above are taken from patent US20260242478A1 (published 2026).
